# B1: Ephrin type-A receptor 2 (Mus musculus), Q03145 (parent)
# chain: MELRAVGFCLALLWGCALAAAAAQGKEVVLLDFAAMKGELGWLTHPYGKGWDLMQNIMDDMPIYMYSVCNVVSGDQDNWLRTNWVYREEAERIFIELKFTVRDCNSFPGGASSCKETFNLYYAESDVDYGTNFQKRQFTKIDTIAPDEITVSSDFEARNVKLNVEERMVGPLTRKGFYLAFQDIGACVALLSVRVYYKKCPEMLQSLARFPETIAVAVSDTQPLATVAGTCVDHAVVPYGGEGPLMHCTVDGEWLVPIGQCLCQEGYEKVEDACRACSPGFFKSEASESPCLECPEHTLPSTEGATSCQCEEGYFRAPEDPLSMSCTRPPSAPNYLTAIGMGAKVELRWTAPKDTGGRQDIVYSVTCEQCWPESGECGPCEASVRYSEPPHALTRTSVTVSDLEPHMNYTFAVEARNGVSGLVTSRSFRTASVSINQTEPPKVRLEDRSTTSLSVTWSIPVSQQSRVWKYEVTYRKKGDANSYNVRRTEGFSVTLDDLAPDTTYLVQVQALTQEGQGAGSKVHEFQTLSTEGSANMAVIGGVAVGVVLLLVLAGVGLFIHRRRRNLRARQSSEDVRFSKSEQLKPLKTYVDPHTYEDPNQAVLKFTTEIHPSCVARQKVIGAGEFGEVYKGTLKASSGKKEIPVAIKTLKAGYTEKQRVDFLSEASIMGQFSHHNIIRLEGVVSKYKPMMIITEYMENGALDKFLREKDGEFSVLQLVGMLRGIASGMKYLANMNYVHRDLAARNILVNSNLVCKVSDFGLSRVLEDDPEATYTTSGGKIPIRWTAPEAISYRKFTSASDVWSYGIVMWEVMTYGERPYWELSNHEVMKAINDGFRLPTPMDCPSAIYQLMMQCWQQERSRRPKFADIVSILDKLIRAPDSLKTLADFDPRVSIRLPSTSGSEGVPFRTVSEWLESIKMQQYTEHFMVAGYTAIEKVVQMSNEDIKRIGVRLPGHQKRIAYSLLGLKDQVNTVGIPI
# Variants of: B1
# Settings: with epha4_mouse Epha4, Q03137
# Chain of epha4_mouse Epha4, Q03137 (Q03137 whole entry): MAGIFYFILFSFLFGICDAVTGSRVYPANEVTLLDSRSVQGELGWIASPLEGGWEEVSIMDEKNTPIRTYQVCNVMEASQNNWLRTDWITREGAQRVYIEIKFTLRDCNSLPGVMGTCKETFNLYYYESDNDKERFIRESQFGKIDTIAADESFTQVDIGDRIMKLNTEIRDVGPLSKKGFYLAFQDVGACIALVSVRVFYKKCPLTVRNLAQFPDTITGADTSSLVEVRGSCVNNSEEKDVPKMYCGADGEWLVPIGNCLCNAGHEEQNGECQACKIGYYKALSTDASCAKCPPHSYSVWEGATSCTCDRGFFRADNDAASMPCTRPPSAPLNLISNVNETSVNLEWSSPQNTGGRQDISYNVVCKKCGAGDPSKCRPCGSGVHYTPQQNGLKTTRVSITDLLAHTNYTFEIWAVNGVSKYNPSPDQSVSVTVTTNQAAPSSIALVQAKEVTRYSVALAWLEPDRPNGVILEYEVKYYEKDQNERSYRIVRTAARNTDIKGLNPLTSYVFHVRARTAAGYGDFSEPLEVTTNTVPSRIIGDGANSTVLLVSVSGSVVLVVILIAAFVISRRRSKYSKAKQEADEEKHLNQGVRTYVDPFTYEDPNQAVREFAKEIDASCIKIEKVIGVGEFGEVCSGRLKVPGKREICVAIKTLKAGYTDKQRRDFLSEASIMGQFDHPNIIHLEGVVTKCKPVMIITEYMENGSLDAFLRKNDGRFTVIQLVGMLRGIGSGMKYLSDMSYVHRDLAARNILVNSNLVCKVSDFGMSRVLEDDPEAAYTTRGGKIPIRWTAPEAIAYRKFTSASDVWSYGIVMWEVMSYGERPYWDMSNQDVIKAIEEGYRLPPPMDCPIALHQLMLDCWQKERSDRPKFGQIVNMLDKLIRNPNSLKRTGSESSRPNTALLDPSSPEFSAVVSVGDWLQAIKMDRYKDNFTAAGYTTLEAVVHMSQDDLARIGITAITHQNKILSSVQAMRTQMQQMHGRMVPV
row,Variant,effect of a mutation on the interaction
1,Y589F,disrupting interaction

# Variants of: B1
# Settings: with epha4_mouse Epha4, Q03137
# Remark: another data set of the same source
row,Variant,effect of a mutation on the interaction
1,Y595F,disrupting interaction
